Consider 21 sequences from the DeepSol protein solubility set.

The nature of the series: soluble on expression in E. coli; label from the status in PepcDB or PDB records.
Take “MTSTSRPPARGSENNGSGGSDGSGSGEDKVKGPTDKELEDAVNKLVEVAKKKAQEEADQARRSVEGKKSFEGDVLEYPYTREEVTKMIEDGAKEIKERFAAVYTPKPDDFDTMISRMQQVEAVLGAYEPSKNTTKETPVIGGGGDLELLRTSVSDMSDWQGKLKNAFVDNYLTPFPRITVTQGGLARFLRHQAEWMQAIYKRRRYDAKKTADQGVEAIEAIDDSKGSEAAIALAAIIGLATLLGPMGSSLAFGLGTSAVVAGTGIGAEFIEEDKEVPLGADTVQGVIDNVYKALEESDKTMVEEEGKVLDALKQIEGVVYPLVMGPDIDKGTELTPMRPAIVDTMDVEELKDGITVYDRHPGGS”: the “soluble on expression in E. coli” value is recorded as “not soluble”.

As to “MPKEWLAEDLSEQYVADYKAFNFVDGEGVRCSLYLSGCPFHCPGCYNVAAQNFHYGQPYSQELEDQIIEDLGQDYVQGLTLLGGEPFLNTQVGIRICERIRSEFGNTKDIWSWSGYTWEELQQDSEDKLKMLSLIDILVDGRFLQDKMDLSLQFRGSSNQRIIDVPKSLTAGKVVIWDKLVKLEHHHHHH”, the “soluble on expression in E. coli” value was “soluble”.

“MGSDKIHHHHHHMAKVPAKAKPEHALLAVPRELMPRDLRVSLHDYTRGGTDRFLTNGQGAKQDMTGFEDQYVNIIDYIVRITHRIWEEKDIGYIYDTYAHNCRVWDDVGLQYGRDKIVADTTHTINAFPDVKLYADEVIWAGDAEHGFHTSHRTVIKGTNTGFSRWGPPTMRPVNVWCIANCVARENEIFEEHVQYNLGAMLQQLGFDLRALAATARAIGIETDPLFAASGRTRVPGQGKPAHGTPRGDGPFDVADFLCSMTQDVWNRRMLSRLTRAYAPALNYQGPTNRSYRSLAQYQSALLSLLAMFPDLSFEPEALYYMEDGKGTTWSSLRWSATGSHGGFGPYGTPTGREVRIWGITQHKIEGETITEEWMQFNEFDLLRQLAPDPVV”: the “soluble on expression in E. coli” value was “not soluble”.

In the case of “MTSYSLEDFNTPLECAPLARWERKRKEQLDRTSKTPNKTPQGDRFIPNRNVMNIEVSRLNLQQEYYGKENNQNSSSLLDSHMDNVEWNSGKDSPACHHYQSALASSLLQNSYHEEHPQSKILTFKQKAPKPQEGYVNSLKVLYSQNMPQISEQRKRMIRHIPQTPDRILDAPELVDDYYLNLLDWNHENILAVALGSSVYLWNASTGDIQELCNVSQDEMICSVSWVPDGHHLAVGTSMKDVQLWDTQRGRQVRKMHSHSSRVGCLAWNGPILSSGSRDTTIHHHDVRIAQHHVETLRGHEQEVCGLKWNVDGSQLASGGNDNLLMIWDHFHSNQPKYRLDHHHAAVKAIAWCPWQTHLLASGGGTADRTIKFWNTTTGACLQSIDTKSQVCALIWNRHDKEIVSSHGFSQNQLIVWKYPSMVKMAELTGHTSRVLHLSLSPDGQTVVSGAGDETLRFWRVFEASESKLKSSNKTLGHSQKSIMRTCNIR”, the “soluble on expression in E. coli” value was “soluble”.

Turning to “MGSDKIHHHHHHMHLFKRAEMLNVIDTLATNYLKGKVRAVRLSVIALLSGGHILLEDIPGLGKTTLALALARALGLSFGRVQCTSDLLPSDITGLSILNRDENRFTFMPGPIFNNVVLMDEINRAMPKTQSALLEAMEERRVTVEGTTHPLPEPFLVIATQNPVEQVGTYPLPESQLDRFMVRSGIGYPPEAIEKAIIKGGSIRDGIRHLEPLVTVNDIIEAQRTVRESIYLSDKVVDYIHAIVAATRSHRAVTSGVSTRGAISMAETAKAHAYLEGRDYVIPEDVKAIAAPVGAHRLILGFDNENLDKGELLHAILATIPVPLA”, the “soluble on expression in E. coli” value is listed as “not soluble”.

“QVQLQQSGPGLVKPSQTLSLTCAISGDSVSSNSAAWNWIRQSPSRGLEWLGRTYYRSKWFNDYAVSVQSRITINPDTSKNQFSLQLNSVTPEDTAVYYCARGIVFSYAMDVWGQGTTVTVSSASTKGPSVFPLAPSSKSTSGGTAALGCLVKDYFPEPVTVSWNSGALTSGVHTFPAVLQSSGLYSLSSVVTVPSSSLGTQTYICNVNHKPSNTKVDKKVEPKSCAADEVDHHHHHH”: the “soluble on expression in E. coli” value is reported as “soluble”.

For the sequence “MGSDKIHHHHHHMDVQVYFSKVEDPRVVGRCKHKLSDILVIALASYLCGGEDYESMHELCLERGASLRPPVELPNGCPSVDTFERVLQRIEPQSLYACLQVYGKELISDLEGKHIAIDGKRLKGSKKKTGSTHILSAWVDEVSLSLAQETVAEKRNELQAIPEVLDSLDLSGAVISINAMGTQTNIAEQIIQSEADYILSLKSNQKHLYEDVQDYFTGQYRCHRYETLEKDHGRIEKRTYTTLLASEVFEEGEYSQWQGLRSLIQVEREISSLEGETRIDRQYYISSLPPEDCQLIGQYIRGHWGIENRLHWHLDVTFREDTCRARKDYSATNLNTLRKFALAIVSGHKDKLSLRKRLFKAALNIDYLKKLLKI”, the “soluble on expression in E. coli” value was “not soluble”.

For “MGHHHHHHSHMSDWEDDDFEPEVSTFKRAEPAPEPVKIVDAPPPPQKAAPAAPKTLKAAPTFAMESLGRELTSAEKEAIQKKNDLALARDLFGDDDSAEATDEAKTYANIMSKADFEYWGERVGGFLASRSKASCYGDMIGKLLTSVTDEMTPAEILKMVTFLQQISAAKKTAEKTKAKATTAAKPAAAANKKNAKATLKVTKGNDSMYDDYGDDQDDYDDY”, the “soluble on expression in E. coli” value was “soluble”.

Consider “MAHHHHHHMTELLSAGEVQHPCGWAFAFPFVKRVPPAKLVRLLGTATLLDRIRENDPTLRSVRLDYELLPREEIMQALLGNNTISSVVIARVIPRNSTGTDFARFLESLYHLPLRSVQVQDGEKLPSSYLNHLLYLVEYCSGVGKACKWTDGKCYAGADLNTGNTTTEINDAEEFNGNNSREDVDSEVLDYKRGAVLEFVDFSGCRLTVRQAQWLGDILFHRRCTLRHVNACECRLGNGGVRALLRRVNTSPRLKAASIAEGSVVPLDMIELRWNGVTEDESIRNFVDVVERSPDCWTCMTVYGNYISPHMYTRCEAQVVKAKRLMEEERLKRREIPTNVEVAQPDGRLSSEKGTSCSPRRYFVDLLTSVAGEVDFVCPSLRAVSSLLHEEP”, for which the “soluble on expression in E. coli” value is given as “not soluble”.

With “RPQISIRVDVPKEEKGIEAMICLDISNSMLCEDVKPNRLSFAKQVLGKLFDGLQNDKVGLVVFAGNAYTQIPITTDLSAAKQFLADISPNMVTAQGTAIGAAIELASKSFSDNKEIGKTIIVLTDGENHEGNAIEAAQQAHEAGIRVNVIGLGTALGAPIPIEEGYLKDETGNPVVTKFDEKMCRDIASAGEGTFFSGQSASALVRAIESQLDKLPKAVLSSSSSSGYREV”, the “soluble on expression in E. coli” value is recorded as “not soluble”.

In the case of “MPQQKNFVTMPAQHQNKQPGIESLMNPLPQFEDPNYKGSEKLKGKNVLITGGDSGIGRAVSIAFAKEGANIAIAYLDEEGDANETKQYVEKEGVKCVLLPGDLSDEQHCKDIVQETVRQLGSLNILVNNVAQQYPQQGLEYITAEQLEKTFRINIFSYFHVTKAALSHLKQGDVIINTASIVAYEGNETLIDYSATKGAIVAFTRSLSQSLVQKGIRVNGVAPGPIWTPLIPSSFDEKKVSQFGSNVPMQRPGQPYELAPAYVYLASSDSSYVTGQMIHVNGGVIVNG”, the “soluble on expression in E. coli” value is reported as “not soluble”.

With “MAKKNPIQPGPEGYIPTPAAFQGCDLPPPGKALLYGEIVDEEVAMREAAKALLTRRNPTIFPGPLVLWGWNADAMEKAKAVLELAMEIPNCRIIPMPDYRPKYPKIDPEAEINPNHPNLTILHNKIEACIFVGVHCHYANLSLRMIRAGTNCFTIALCAEMGHEDAMVSLRDVHADEIRKFRDVVVEVRKELGIEWEPKLPPENPSLPKEDWVKISPLDFGEYAYLLIPRRGEIVEESE”, the “soluble on expression in E. coli” value is “not soluble”.

On to “GSHMASMTGGQQMGRGSMTQDEMKKAAGWAALKYVEKGSIVGVGTGSTVNHFIDALGTMSEEIKGAVSSSVASTEKLEALGIKIFDCNEVASLDIYVDGADEINADREMIKGGGAALTREKIVAAIADKFICIVDGTKAVDVLGTFPLPVEVIPMARSYVARQLVKLGGDPCYREGVITDNGNVILDVYGMKITNPKQLEDQINAIPGVVTVGLFAHRGADVVITGTPEGAKIEE”, for which the “soluble on expression in E. coli” value is reported as “soluble”.

As for “MSLEPTAPSLTEEDLTEVKKDALENLRVYLCEKIIAERHFDHLRAKKILSREDTEEISCRTSSRKRAGKMLDYLQENPKGLDTLVESIRREKTQNFLIQKITDEVLKLRNIKLEHLKGLKCSSCEPFPDGATNNLSRSNSDESNFSEKLRASTVMYHPEGESSTTPFFSTNSSLNLPVLEVGRTENTIFSSTTLPRPGDPGAPPLPPDLQLEEEGTCANSSEMFLPLRSRTVSREGHHHHHH”, the “soluble on expression in E. coli” value is on record as “not soluble”.

On to “MNHTEIRVVTGPANYFSHAGSLERLTDFFTPEQLSHAVWVYGERAIAAARPYLPEAFERAGAKHLPFTGHCSERHVAQLAHACNDDRQVVIGVGGGALLDTAKALARRLALPFVAIPTIAATCAAWTPLSVWYNDAGQALQFEIFDDANFLVLVEPRIILQAPDDYLLAGIGDTLAKWYEAVVLAPQPETLPLTVRLGINSACAIRDLLLDSSEQALADKQQRRLTQAFCDVVDAIIAGGGMVGGLGERYTRVAAAHAVHNGLTVLPQTEKFLHGTKVAYGILVQSALLGQDDVLAQLITAYRRFHLPARLSELDVDIHNTAEIDRVIAHTLRPVESIHYLPVTLTPDTLRAAFEKVEFFRI”, for which the “soluble on expression in E. coli” value was “not soluble”.

Consider “MSHHPDLSVSLDQLLLRKEVRVRQQGEWLKRHSLPLVSFTVNMPGAVKLNAASQTVMDAGMRAIQELCQKTGWRQVACQLLVEKTGPEAFVVIQAPSASMLKKAMMKIEREHPLGRLMDLDVIDVDGHIISRQGAQLPRRRCLLCERDAVICARSRRHSVEALLAKIEEMTHDYSCCA”, for which the “soluble on expression in E. coli” value was “soluble”.

For “MAHHHHHHMYSFSPVTPGKTAASPANDLVSSSSNSNGELVDDIKESLDRIEKLLNRGQQLLYGDGAADGKKAYSEGAAVTPDGEPADADTVSIPTARHVDANCGSYQLPSDTHVGLPLRGTGTSAAANASLYPQSTSQHSASHFQRNSEKLYQRLSGESNHRYPSQNGSNRSSLHARPHANRASVGSNRLPPGFKDKVLVSVRGRRIVQIQKEGGIVPNFEEGLDAHDTPQNFTIEELKARIHRELEEYRRLGPLMNRYKSFRRRQCVTVAKRAPMMKIASRTFTAATTAALGSKLVKHIPAPASASTPQGAANRFGVHAAAATTKTGPHAAPASRQAAKSTNGTPARSTLRNSHERGRVETRRADRGSHPPMMAPPGNSTYSAYYNPLQMSGGSRNASCELSLKQTAGCSDVVPQHARNVSKSKPRTTEPQDDMEEASLPDSMEDCDASQPYVAPLDLSVIKK”, the “soluble on expression in E. coli” value was “not soluble”.

In the case of “MTAFRQRPLRLGHRGAPLKAKENTLESFRLALEAGLDGVELDVWPTRDGVFAVRHDPDTPLGPVFQVDYADLKAQEPDLPRLEEVLALKEAFPQAVFNVELKSFPGLGEEAARRLAALLRGREGVWVSSFDPLALLALRKAAPGLPLGFLMAEDHSALLPCLGVEAVHPHHALVTEEAVAGWRKRGLFVVAWTVNEEGEARRLLALGLDGLIGDRPEVLLPLGG”, the “soluble on expression in E. coli” value is “soluble”.

Consider “MEALILEPSLYTVKAILILDNDGDRLFAKYYDDTYPSVKEQKAFEKNIFNKTHRTDSEIALLEGLTVVYKSSIDLYFYVIGSSYENELMLMAVLNCLFDSLSQMLRKNVEKRALLENMEGLFLAVDEIVDGGVILESDPQQVVHRVALRGEDVPLTEQTVSQVLQSAKEQIKWSLLR”, for which the “soluble on expression in E. coli” value is recorded as “not soluble”.

Take “MKYQVLLYYKYTTIEDPEAFAKEHLAFCKSLNLKGRILVATEGINGTLSGTVEETEKYMEAMQADERFKDTFFKIDPAEEMAFRKMFVRPRSELVALNLEEDVDPLETTGKYLEPAEFKEALLDEDTVVIDARNDYEYDLGHFRGAVRPDIRSFRELPQWIRENKEKFMDKKIVTYCTGGIRCEKFSGWLLKEGFEDVAQLHGGIANYGKNPETRGELWDGKMYVFDDRISVEINHVDKKVIGKDWFDGTPCERYINCANPECNRQILTSEENEHKHLGGCSLECSQHPANRYVKKHNLTEAEVAERLALLEAVEVLEHHHHHH”: the “soluble on expression in E. coli” value is “soluble”.

As for “VVAPITTGYTVKISNYGWDQSDKFVKIYITLTGVHQVPTENVQVHFTERSFDLLVKNLNGKSYSMIVNNLLKPISVEGSSKKVKTDTVLILCRKKVENTRWDYLTQVEKECKEK”, the “soluble on expression in E. coli” value is “soluble”.
